Laboratory results from publication PMC12748588, “Cryo-EM structures of plant Augmin reveal coiled-coil assembly, antiparallel dimerization, and NEDD1 binding” (Nature Communications, 2025).

T1: AUG5 with C-terminal 8xHis tag (subunit of the hetero-octamer) (A. thaliana, UniProt Q9FMB4 1-796)
T1 construct: AUGMIN subunit 5 (AUG5), A. thaliana; subunit ORF in pET3a, assembled into the eight-subunit polycistronic vector; Subunit of m1; the assembly was captured on Ni-IDA by this chain; also called AUG5 (His); not shown: His8, C-terminal, kept
T1 sequence (looked up): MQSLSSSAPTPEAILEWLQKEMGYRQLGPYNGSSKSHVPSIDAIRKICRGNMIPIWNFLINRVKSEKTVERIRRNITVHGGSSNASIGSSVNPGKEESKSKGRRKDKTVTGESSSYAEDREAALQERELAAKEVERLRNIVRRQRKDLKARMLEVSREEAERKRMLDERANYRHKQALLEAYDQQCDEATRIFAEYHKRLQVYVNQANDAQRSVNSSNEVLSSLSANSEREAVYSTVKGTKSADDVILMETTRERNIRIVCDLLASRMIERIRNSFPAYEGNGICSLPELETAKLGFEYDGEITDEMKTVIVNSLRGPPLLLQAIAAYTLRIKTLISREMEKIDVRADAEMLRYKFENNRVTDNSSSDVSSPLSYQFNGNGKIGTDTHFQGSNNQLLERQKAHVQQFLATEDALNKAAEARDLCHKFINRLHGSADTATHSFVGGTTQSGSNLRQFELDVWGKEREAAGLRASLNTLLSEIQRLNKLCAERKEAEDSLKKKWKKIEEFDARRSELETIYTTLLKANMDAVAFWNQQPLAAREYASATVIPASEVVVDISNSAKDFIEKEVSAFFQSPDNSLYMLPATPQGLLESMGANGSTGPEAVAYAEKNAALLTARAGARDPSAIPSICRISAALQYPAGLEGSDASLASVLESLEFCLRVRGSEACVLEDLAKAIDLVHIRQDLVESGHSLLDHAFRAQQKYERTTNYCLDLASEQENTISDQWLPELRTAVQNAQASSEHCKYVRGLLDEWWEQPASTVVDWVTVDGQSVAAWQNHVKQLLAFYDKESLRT

T2: AUG5 with C-terminal GFP and His tags (subunit of the hetero-tetramer) (A. thaliana, UniProt Q9FMB4 1-796)
T2 construct: AUGMIN subunit 5 (AUG5), A. thaliana; subunit ORF in the four-subunit polycistronic vector; Subunit of m2; source: E. coli SoluBL21, co-expressed with AUG1, AUG3 and AUG4, purified as part of the assembly (Ni-IDA, Q-FF, Superdex 200); not shown: His tag, C-terminal, kept
T2 sequence (looked up): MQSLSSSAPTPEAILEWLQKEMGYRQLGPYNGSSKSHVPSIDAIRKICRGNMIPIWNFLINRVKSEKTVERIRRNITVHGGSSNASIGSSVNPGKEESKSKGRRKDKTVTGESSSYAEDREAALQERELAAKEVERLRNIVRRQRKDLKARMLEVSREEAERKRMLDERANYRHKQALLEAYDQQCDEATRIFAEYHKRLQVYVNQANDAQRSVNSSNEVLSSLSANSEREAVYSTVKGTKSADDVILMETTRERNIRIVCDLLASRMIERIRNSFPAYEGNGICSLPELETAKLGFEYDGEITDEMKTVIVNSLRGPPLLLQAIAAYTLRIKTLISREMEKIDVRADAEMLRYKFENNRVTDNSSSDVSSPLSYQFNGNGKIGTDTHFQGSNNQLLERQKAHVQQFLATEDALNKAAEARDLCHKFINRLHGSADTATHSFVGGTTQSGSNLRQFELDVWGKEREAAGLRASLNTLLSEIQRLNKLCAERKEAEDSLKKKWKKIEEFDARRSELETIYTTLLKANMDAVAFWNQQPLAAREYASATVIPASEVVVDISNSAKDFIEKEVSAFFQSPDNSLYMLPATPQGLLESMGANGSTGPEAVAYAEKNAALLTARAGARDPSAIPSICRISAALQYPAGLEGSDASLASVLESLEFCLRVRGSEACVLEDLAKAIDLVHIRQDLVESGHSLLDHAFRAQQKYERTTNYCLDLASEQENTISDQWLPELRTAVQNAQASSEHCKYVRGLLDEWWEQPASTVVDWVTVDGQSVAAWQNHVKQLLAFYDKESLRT


Key:
Assay in all cases: SEC-MALS + other: mass photometry; co-expressed assemblies purified by Ni-IDA (AUG5 His tag), Q-FF and gel filtration; subunits confirmed by SDS-PAGE and mass spectrometry; SEC-MALS on Superdex 200 Increase 10/300, 200 µL at 1 mg/mL, 50 mM HEPES pH 7.5, 200 mM KCl, 1 mM MgCl2, 1 mM EGTA
[1] = biological target: AUG5 with C-terminal 8xHis tag (subunit of the hetero-octamer) (A. thaliana) (UniProt Q9FMB4)
[2] = biological target: T1, AUG5 with C-terminal 8xHis tag (subunit …); settings: both partners purified
[3] = biological target: T2, AUG5 with C-terminal GFP and His tags …; settings: both partners purified

Chain of AUG8 C-terminal region (residues 383-644) (Q9SUH5 383-644): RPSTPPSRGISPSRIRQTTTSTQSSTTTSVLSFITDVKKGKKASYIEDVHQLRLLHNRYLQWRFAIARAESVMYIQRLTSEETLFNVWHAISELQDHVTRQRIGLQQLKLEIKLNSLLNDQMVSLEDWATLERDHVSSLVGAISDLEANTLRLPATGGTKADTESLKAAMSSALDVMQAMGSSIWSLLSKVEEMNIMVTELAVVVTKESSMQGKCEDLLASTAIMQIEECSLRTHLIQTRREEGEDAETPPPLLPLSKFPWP

| Molecule | stoichiometry N (subunit per assembly) [1] | stoichiometry N [2] | stoichiometry N [3] |
| --- | --- | --- | --- |
| AUG8 C-terminal region (residues 383-644) (from UniProt Q9SUH5 383-644) (domain or fragment) | 1 |  |  |
| AUG1 (A. thaliana Augmin subunit 1) (natural protein, UniProt F4IK01 1-299, looked up, AUGMIN subunit 1 (AUG1), A. thaliana; subunit ORF in pET3a, assembled into polycistronic vectors; Subunit of m1 and m2; source: E. coli SoluBL21, co-expressed with the other Augmin subunits, purified as part of the assembly) MSDVTGDLAAVSEAKGGSDAARISEVKAWLTSQFEAVGKEVPNFEYTHRSITHLYNLATASQAKSQAATIVANDFRLKASEYRAQAARIREILESAGMSQESLPSNVVSSAQVLANVANLLNIRDTELSSFLVAMGDISLRKTGVEEKRAKAQKESNALLDYTRKAIQRLTYLKKILAQLEDDVVPCESQMENWKTNLEVMAVKEEQYIQQYKKYEQMLLNRVGYTPKISHRELVEMAEHRKELDKMTKPVLDTLRSYQDLPPDKALAALAIEDKKRQFTAAEKYLEEVLQSALETNDE |  | 1 subunit per assembly | 1 subunit per assembly |
| AUG3 (A. thaliana Augmin subunit 3) (natural protein, UniProt Q0WQE7 1-617, looked up, AUGMIN subunit 3 (AUG3), A. thaliana; subunit ORF in pET3a, assembled into polycistronic vectors; Subunit of m1 and m2; source: E. coli SoluBL21, co-expressed with the other Augmin subunits, purified as part of the assembly) MSSARLCSLVAELGYEGAGKLDPDSFEWPFQYDDARPILDWICSSLRPSNVLSLAELSLYEQFQRDGKLLEGDDLDQAYDSISAFSSRRNNQEAVFGAEESIKEVRDATLAHKAEALELQRQLRRLQTQYDLLTGQSSALIQGRRARVAATSAVSGQITAIEDSLSARNLQMNGVLGRLASTSQELAHYHSGEEDGIYLAYSDFHAYLAGDSACTKELNQWFAKQLDTGPYRLVAEEGKSKCSWVSLDDTSNMLRDLEKSQHQRVAELQRLRSIFGTSERQWIEAQVENAKQQAILLTLKSQVTSVEAHIHFDLHSLRRKHADLVEEISTLYQKEEKLLSETIPELCWELAQLQDTYILQGDYDLKVMRQELYISKQKVFINHLVNQLARHQFLKLACQLEKKNMLGAFSLLKVIESELQGYLSATRSRVGRCSALIQAASDVQEQGAVDDRDSFLHGVRDLLSIHSNTQAGLSTYVSAPAIIQQIVALQSDLSSLQSDLENSLPDDRNRCINELCTHIQNLQQLLFASSTTAQPILTPWPLMKELDEMGKINSKLSTAVEEVTLEHRNKREIVKHHAKDVELQRRVFVDFFCNPERLRNQVRELNALVRARQASSS |  | 1 subunit per assembly | 1 subunit per assembly |
| AUG6 with C-terminal StrepII tag (natural protein, A. thaliana, UniProt Q94BP7 1-741, looked up, AUGMIN subunit 6 (AUG6), A. thaliana; ORF in pET3a, assembled into a polycistronic vector; N-terminal CH domain; its C-terminal region is prone to degradation; Subunit of m1; also called AUG6-StrepII; source: E. coli SoluBL21, co-expressed with the other Augmin subunits, purified as part of the assembly) MTMDREKERELELESAMYTNCLLLGLDPNVIGLGASNGTPRVGLFRHSNPKLGEQLLYFILSSLRGPAQSSKDFDKVWPIFDSAQSRDFRKVVQAIISELESQGALPRSNSRVSSLATCCGPRFVELLWQLSLHALREVHRRTFPADVASNPLPSSLTDVSFSHAATLLPVTKARIVLERRRFLKNAETAVQRQAMWSNLAHEMTAEFRGLCAEEAYLQQELEKLNDLRNKVKQEGEVWDDLVSSSSQNSHLVSKATRLWDSIMARKGQHEVLASGPIEDLIAHREHRYRISGSALLAAMDQSSQVPRAELLSAHSDDSASLADDKELSDGSYTNMHDHSLVDSFETASSQASDETLSRVDDRGGKINQTVDVAEVIRRWTHALQRIHKQSLLLAKANDGDGPDILRTASDGGTSGHVESLAATLTEHQQHLASFQVLINQLKEVSPAIQKSISECTEMVNSLPPTLPPVTRSNGQASSLLQSQGSGRIMEGVSNDVAELTSTMSNVQLEKVSASPTLKLPQLFSSTPTSSGKGGNGQKRQTMASQVNKMESLSEKNSTDQALSNARPDNLPTDTSSSFVHNLKKSVREAALLIPSSAGSSRDSQSDEGSEHYFVPLSATGFSRFPSETKALPLRGSRALTSLSEPSFLEPNVPDSFAPSKYSDIPDTYDDLDSFKDYDNGNGFLSVAGSNSVASDAQQSFYDIDDQVFSPPLLMDSSLLSDAYEDLLAPLSETEAALMEH |  | 1 subunit per assembly |  |
| AUG2 (A. thaliana Augmin subunit 2) (natural protein, UniProt O48767 1-296, looked up, AUGMIN subunit 2 (AUG2), A. thaliana; codon-optimised ORF in pET3a, assembled into a polycistronic vector; Subunit of m1; source: E. coli SoluBL21, co-expressed with the other Augmin subunits, purified as part of the assembly) MSMGGDTTWVGKKPIRRIGGLSDALSIASDLGFAVAPPPSQEELQSFASSNGERGDDLIRVLRELSVVQRKIADLQVELQGRKDDKNVAHLTHVGEMQKKIETLSRITQILKDVIQNKDRIIARLQQPYSLDCIPVEAEYQKQFSELLMKAASDYGALTASVSDFQWSQNFKEPPSVWGEMLRPIPVALASCTRFFEAMSAMRESFATLQELRVGNSAVSLPTTPGGNEMTHRDSDCVTPPQGRIESSFDDLAVHKTRRQNNDQNEEEEEEEEEEDGNNNGNRRLSWPPSVKKSSV |  | 1 subunit per assembly |  |
| AUG7 (A. thaliana Augmin subunit 7) (natural protein, UniProt Q0WTP1 1-329, looked up, AUGMIN subunit 7 (AUG7), A. thaliana; codon-optimised ORF in pET3a, assembled into a polycistronic vector; N-terminal CH domain; Subunit of m1; source: E. coli SoluBL21, co-expressed with the other Augmin subunits, purified as part of the assembly) MAAKQMEEIQKKLRLLSYPRANAPAQSLLFAGMERYALLEWLFFKLLGDKSPFSQQNLQGDAGVRDEETVRIQYLAEIAKFLGITPTVDIEAIQGHGTYEDRMEMLRNIVDLVEASLFSDNQEWSIDEQVAKDIQLIDAIAERQSLIFSEECKLFPADVQIQSIYPLPDVSELETKLSEQAKILSNLQQKVDDLAAKHAYNPDEEYTEVESQLRARLESFLETARAFNTIYTKEIRPWTHMMEVPQLHGFGPAANRLLEAYNMLLKFLGNLKNLRDSHAALSIGSSGTVAGEPSSVTRIVSDCEAALTVLNRDLGILSASIAREQGERL |  | 1 subunit per assembly |  |
| AUG4 (A. thaliana Augmin subunit 4) (natural protein, UniProt Q8GYM3 1-423, looked up, AUGMIN subunit 4 (AUG4), A. thaliana; subunit ORF in pET3a, assembled into polycistronic vectors; Subunit of m1 and m2; source: E. coli SoluBL21, co-expressed with the other Augmin subunits, purified as part of the assembly) MVKALQGAAQNLPADVNQLIDQLERHCLAPDGSLVTKSVYSDLQLAREEMSRERLRYLEAMAIYCEAVAMVEEYQQAISVANHGGIRDVQGLYPQLGLKNSPQVYETLEHRLVVAEAAQKLRLPLISDGGEIHEEEIEKWSILSRSSLDSASTSFTISSTSNSVNYANSSANSVAGGISLSAVDTDVVGGVPNRFLGITPAYLSYVQLQNTISMDMADYQMFLAREIEGRLKEKCDKLADAIVDDTDSSTGNRNSSARLPERVKFIIEEIERDEAALREDLYSADRKFAEYYNVLEQILGVLIKLVKDLKLEHQHKYNEMQKTWLCKRCETMNAKLRVLENVLLLETYTPDSISALHNIRNYLVEATEEASAAYNKAVTRLREYQGVDPHFDTIARQYHDIVKKLENMQWTIHQVEMDLKSHD |  | 1 subunit per assembly | 1 subunit per assembly |
